This note sets out measurements from publication PMC3508667 (Biochemistry, 2012).

Sequences and labels used below:
B1: (Phe94)-scFv (scFv, V domains shown)
VH: DIQLQESGPSLVKPSQTLSLTCSVTGDSITSDYWSWIRKFPGNRLEYMGYVSYSGSTYYNPSLKSRISITRDTSKNQYYLDLNSVTTEDTATYYCANWDGDYWGQGTLVTVSA
VL: DIVLTQSPATLSVTPGNSVSLSCRASQSIGNNLHWYQQKSHESPRLLIKYASQSISGIPSRFSGSGSGTDFTLSINSVETEDFGMYFCQQSNSFPYTFGGGTKLEIT
B2: (Phe34)-scFv (scFv, V domains shown)
VH: DIQLQESGPSLVKPSQTLSLTCSVTGDSITSDYFSWIRKFPGNRLEYMGYVSYSGSTYYNPSLKSRISITRDTSKNQYYLDLNSVTTEDTATYYCANWDGDYWGQGTLVTVSA
VL: DIVLTQSPATLSVTPGNSVSLSCRASQSIGNNLHWYQQKSHESPRLLIKYASQSISGIPSRFSGSGSGTDFTLSINSVETEDFGMYFCQQSNSWPYTFGGGTKLEIT
B3: ^5FW(Phe94)-scFv (scFv, V domains shown)
VH: DIQLQESGPSLVKPSQTLSLTCSVTGDSITSDYWSWIRKFPGNRLEYMGYVSYSGSTYYNPSLKSRISITRDTSKNQYYLDLNSVTTEDTATYYCANWDGDYWGQGTLVTVSA
VL: DIVLTQSPATLSVTPGNSVSLSCRASQSIGNNLHWYQQKSHESPRLLIKYASQSISGIPSRFSGSGSGTDFTLSINSVETEDFGMYFCQQSNSFPYTFGGGTKLEIT
B4: (Phe36)-scFv (scFv, V domains shown)
VH: DIQLQESGPSLVKPSQTLSLTCSVTGDSITSDYWSFIRKFPGNRLEYMGYVSYSGSTYYNPSLKSRISITRDTSKNQYYLDLNSVTTEDTATYYCANWDGDYWGQGTLVTVSA
VL: DIVLTQSPATLSVTPGNSVSLSCRASQSIGNNLHWYQQKSHESPRLLIKYASQSISGIPSRFSGSGSGTDFTLSINSVETEDFGMYFCQQSNSWPYTFGGGTKLEIT
B5: ^5FW(Phe34)-scFv (scFv, V domains shown)
VH: DIQLQESGPSLVKPSQTLSLTCSVTGDSITSDYFSWIRKFPGNRLEYMGYVSYSGSTYYNPSLKSRISITRDTSKNQYYLDLNSVTTEDTATYYCANWDGDYWGQGTLVTVSA
VL: DIVLTQSPATLSVTPGNSVSLSCRASQSIGNNLHWYQQKSHESPRLLIKYASQSISGIPSRFSGSGSGTDFTLSINSVETEDFGMYFCQQSNSWPYTFGGGTKLEIT
B6: ^5FW(Phe36)-scFv (scFv, V domains shown)
VH: DIQLQESGPSLVKPSQTLSLTCSVTGDSITSDYWSFIRKFPGNRLEYMGYVSYSGSTYYNPSLKSRISITRDTSKNQYYLDLNSVTTEDTATYYCANWDGDYWGQGTLVTVSA
VL: DIVLTQSPATLSVTPGNSVSLSCRASQSIGNNLHWYQQKSHESPRLLIKYASQSISGIPSRFSGSGSGTDFTLSINSVETEDFGMYFCQQSNSWPYTFGGGTKLEIT

Chain of hen egg white lysozyme (hen) (P00698 19-147): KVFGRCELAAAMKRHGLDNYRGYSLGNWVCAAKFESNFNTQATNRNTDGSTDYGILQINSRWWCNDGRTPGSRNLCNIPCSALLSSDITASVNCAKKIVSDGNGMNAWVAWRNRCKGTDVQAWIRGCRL

The target of one assay is hen egg white lysozyme (Gallus gallus (hen egg white), UniProt P00698). Kind of assay: SPR.
Chain of hen egg white lysozyme (P00698 19-147): as above
As a reminder, the Kd is the free concentration of one partner at which half of the binding sites on the other are occupied at equilibrium, for simple one-to-one binding. A low value points to tighter binding. The molecule B1 came in with an equilibrium dissociation constant (Kd) of 0.272 nM. That is a sub-nanomolar value.
In turn, B2 gave an equilibrium dissociation constant (Kd) of 0.266 nM.
B3 had a Kd of 1.99 nM.
Molecule B4 had a Kd of 0.559 nM.
Still for that read-out and setting: to B5 belongs 1.22 nM; to B6, 4.22 nM.

The next assay addresses hen egg white lysozyme (hen) (UniProt P00698). Kind of assay: SPR. (In general: In SPR one partner is held on a chip, and binding of the other changes the refractive index at the surface.)
For “^5FW-scFv (HyHEL10 scFv, all Trp residues substituted with 5-fluorotryptophan)”, the Kd is 4.03 nM. In other words, the single-digit nanomolar range.
